Assay results from publication doi:10.1101/2023.10.27.564484, “Insights into Molecular Diversity within the FET Family: Unraveling Phase Separation of the N-Terminal Low Complexity Domain from RNA-Binding Protein EWS” (bioRxiv, 2023).
Substitutions are numbered along the chain they refer to. Names may count otherwise.

Columns and labels:
[1] = biological target: EWS^LCD,13YS (UniProt Q01844); test: pelleting assay (phase separation); settings: 50 µM protein, 150 mM NaCl, 20 mM Tris pH 7.4; parent: est. 0.36; read off a plot
[2] = biological target: EWS^LCD,7YS (UniProt Q01844); test: pelleting assay (phase separation); settings: 50 µM protein, 150 mM NaCl, 20 mM Tris pH 7.4; parent: est. 0.36; read off a plot
[3] = biological target: the molecule itself; test: turbidity (phase separation) with brightfield imaging; stock diluted into 20 mM Tris buffer with varied protein, NaCl, pH or temperature in microwell plates; absorbance and brightfield images of droplets
[4] = biological target: the molecule itself; test: co-sedimentation; pelleting of condensates: stock in CAPS pH 11 diluted into 20 mM Tris pH 7.4-7.5, 150 mM NaCl, 18,000 g for 15 min at room temperature, A280 of the supernatant; protein 25-400 µM, mutants at 50 µM

EWS low-complexity domain (N-terminal 264 residues of RNA-binding protein EWS) (from UniProt Q01844) 13YS
other: fraction soluble [1]: 1

EWS low-complexity domain (N-terminal 264 residues of RNA-binding protein EWS) (from UniProt Q01844) 7YS
other: fraction soluble [2]: 0.92

B1: EWS low-complexity domain (N-terminal 264 residues of RNA-binding protein EWS) (domain or fragment)
chain: GAMASTDYSTYSQAAAQQGYSAYTAQPTQGYAQTTQAYGQQSYGTYGQPTDVSYTQAQTTATYGQTAYATSYGQPPTGYTTPTAPQAYSQPVQGYGTGAYDTTTATVTTTQASYAAQSAYGTQPAYPAYGQQPAATAPTRPQDGNKPTETSQPQSSTGGYNQPSLGYGQSNYSYPQVPGSYPMQPVTAPPSYPPTSYSSTQPTSYDQSSYSQQNTYGQPSSYGQQSSYGQQSSYGQQPPTSYPPQTGSYSQAPSQYSQQSSSYGQQ
notes: two residue (Gly, Ala) cloning scar left after TEV cleavage; not included in the numbering; 15N-enriched in the intermolecular PRE experiment; unlabelled in turbidity and pelleting assays; also called EWS^LCD; EWS LCD; source: E. coli BL21 DE3 Star, purified (IMAC in urea, TEV cleavage, second IMAC, SEC); not shown: His8, N-terminal, cleaved
binding result [3]: binds

B2: EWS^LCD Y208S (domain or fragment)
chain: B1 chain with Y210S
notes: two residue (Gly, Ala) cloning scar left after TEV cleavage; not included in the numbering; source: E. coli BL21 DE3 Star, purified (IMAC, TEV cleavage, SEC); not shown: His8, N-terminal, cleaved
binding result [4]: binds

B3: EWS^LCD Y172S (domain or fragment)
chain: B1 chain with Y174S
notes: as for B2
binding result [4]: binds

B4: EWS^LCD,Y170S/Y172S (domain or fragment)
chain: B1 chain with Y172S, Y174S
notes: two residue (Gly, Ala) cloning scar left after TEV cleavage; not included in the numbering; also called Y170/Y172S; source: E. coli BL21 DE3 Star, purified (IMAC, TEV cleavage, SEC); not shown: His8, N-terminal, cleaved
binding result [3]: binds

B5: EWS^LCD Y44S (domain or fragment)
chain: B1 chain with Y46S
notes: as for B2
binding result [4]: binds
